Six molecules from paper PMC4704560, “Biophysical Characterization of Nucleophosmin Interactions with Human Immunodeficiency Virus Rev and Herpes Simplex Virus US11” (PLoS ONE, 2015) can be followed below.

The labels stand for the following.
B1: HIV-1 Rev full-length (Rev^FL, aa 1-116), tag cleaved (natural protein)
chain: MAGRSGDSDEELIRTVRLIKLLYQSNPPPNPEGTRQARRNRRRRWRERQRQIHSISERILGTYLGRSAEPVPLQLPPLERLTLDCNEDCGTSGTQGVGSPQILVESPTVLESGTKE
B2: NPM1 histone and RNA-binding domains (NPM1^HRBD, aa 120-294), tag cleaved (domain or fragment, UniProt P06748 120-294, looked up)
chain: EEDAESEDEEEEDVKLLSISGKRSAPGGGSKVPQKKVKLAADEDDDDDDEEDDDEDDDDDDFDDEEAEEKAPVKKSIRDTPAKNAQKSNQNGKDSKPSSTPRSKGQESFKKQEKTPKTPKGPSSVEDIKAKMQASIEKGGSLPKVEAKFINYVKNCFRMTDQEAIQDLWQWRKSL
notes: also called NPM^HRBD; source: E. coli (BL21(DE3), pLysS BL21(DE3), CodonPlusRIL or BL21(Rosetta)), purified
B3: NPM1 oligomerization domain (NPM1^OD, aa 1-122), tag cleaved (domain or fragment, UniProt P06748 1-122, looked up)
chain: MEDSMDMDMSPLRPQNYLFGCELKADKDYHFKVDNDENEHQLSLRTVSLGAGAKDELHIVEAEAMNYEGSPIKVTLATLKMSVQPTVSLGGFEITPPVVLRLKCGSGPVHISGQHLVAVEED
notes: source: E. coli (BL21(DE3), pLysS BL21(DE3), CodonPlusRIL or BL21(Rosetta)), purified
B4: NPM1 histone binding domain (NPM1^HBD, aa 120-241), tag cleaved (domain or fragment, UniProt P06748 120-241, looked up)
chain: EEDAESEDEEEEDVKLLSISGKRSAPGGGSKVPQKKVKLAADEDDDDDDEEDDDEDDDDDDFDDEEAEEKAPVKKSIRDTPAKNAQKSNQNGKDSKPSSTPRSKGQESFKKQEKTPKTPKGP
notes: as for B3

One data set addresses FITC-labelled CIGB-300. Description: fluorescence polarisation; increasing amounts of NPM1 variants, GST-Rev, GST-US11 or GST titrated into 0.1 uM FITC-labelled CIGB-300; 25 C; 30 mM Tris/HCl pH 7.5, 150 mM NaCl, 5 mM MgCl2, 1 mM TCEP; quadratic ligand binding equation.
The target of data set [1] is HSV-1 US11 full-length (US11^FL, aa 1-152), tag-free (HSV-1) (UniProt P04487). Description: ITC; 1.2 mM NPM1^FL titrated into 60 uM US11^FL; both treated with RNase A; 25 C; apparent Kd; endothermic. A general note: ITC needs no label: the signal is the heat of the interaction.
Data set [2] has the same target. Description: SEC-MALS; aSEC (Superdex 200 10/300) with MALS/RI of NPM1^OD, US11^FL and their mixture, RNase A treated; 30 mM Tris-HCl pH 7.5, 150 mM NaCl, 5 mM MgCl2, 3 mM DTT. A general note: In gel filtration, larger molecules generally elute earlier.
The target in data set [3] is T1, NPM1 full-length (NPM1^FL, aa 1-294), tag cleaved (UniProt P06748 1-294).
T1 construct: source: E. coli (BL21(DE3), pLysS BL21(DE3), CodonPlusRIL or BL21(Rosetta)), purified
Put plainly: ITC; NPM1 variants titrated into Rev^FL (tags cleaved); 25 C; 30 mM Tris-HCl pH 7.5, 150 mM NaCl, 5 mM MgCl2, 1 mM TCEP; VP-ITC. Particulars: both partners purified.

The target of data set [4] is B2. Described as above. Particulars: both partners purified.
Data set [5] concerns the target B3. The description is as above. Particulars: both partners purified.
Data set [6] deals with B4. Described as above. Particulars: both partners purified.
Data set [7] concerns the target B1. Described as above. Particulars: both partners purified.
Data set [8] deals with the molecule itself. Description: SEC-MALS; aSEC (Superdex 200 10/300) with MALS/RI of NPM1^OD, US11^FL and their mixture, RNase A treated; 30 mM Tris-HCl pH 7.5, 150 mM NaCl, 5 mM MgCl2, 3 mM DTT.

On to “NPM1 full-length (NPM1^FL, aa 1-294), tag cleaved (from UniProt P06748 1-294) (natural protein)”, for which the Kd amounted to 1.4 µM with FITC-labelled CIGB-300 and 4 µM in data set [1].
For the molecule “NPM1 oligomerization domain (NPM1^OD, aa 1-122), tag cleaved (from UniProt P06748 1-122) (domain or fragment)”, the stoichiometry N (US11^FL monomer per NPM1^OD pentamer) in [2] is 1. In addition, the Kd with FITC-labelled CIGB-300 worked out at 6.6 µM.
Take B1: the Kd in data set [3] worked out at 0.41 µM; in data set [4] it was 18 µM; in data set [5], 0.013 µM; in data set [6], 5.8 µM.
The term stoichiometry N denotes a count of units in the complex or per binding partner. Regarding B2, in data set [7], the dH is -3.23 ± 0.31 kcal/mol and the “stoichiometry N” value was found to be 0.76 sites.
Consider B3, for which, in data set [7], the dH was -3.79 ± 0.11 kcal/mol and the “stoichiometry N” value was determined as 0.94 sites. In addition, in data set [8], the “stoichiometry N” value was determined as 5.
As to B4, in data set [7], the dH is -1.71 ± 0.2 kcal/mol and the “stoichiometry N” value was 0.85 sites.
